Results reported in publication PMC4692422.

B1: Flag-tagged WT STAT5 (mouse STAT5a) [mouse] / DUSP4-PD (phosphatase-dead mutant DUSP4, [mouse] (parent)
chain 1: MAGWIQAQQLQGDALRQMQVLYGQHFPIEVRHYLAQWIESQPWDAIDLDNPQDRGQATQLLEGLVQELQKKAEHQVGEDGFLLKIKLGHYATQLQNTYDRCPMELVRCIRHILYNEQRLVREANNCSSPAGVLVDAMSQKHLQINQRFEELRLITQDTENELKKLQQTQEYFIIQYQESLRIQAQFAQLGQLNPQERMSRETALQQKQVSLETWLQREAQTLQQYRVELAEKHQKTLQLLRKQQTIILDDELIQWKRRQQLAGNGGPPEGSLDVLQSWCEKLAEIIWQNRQQIRRAEHLCQQLPIPGPVEEMLAEVNATITDIISALVTSTFIIEKQPPQVLKTQTKFAATVRLLVGGKLNVHMNPPQVKATIISEQQAKSLLKNENTRNECSGEILNNCCVMEYHQATGTLSAHFRNMSLKRIKRADRRGAESVTEEKFTVLFESQFSVGSNELVFQVKTLSLPVVVIVHGSQDHNATATVLWDNAFAEPGRVPFAVPDKVLWPQLCEALNMKFKAEVQSNRGLTKENLVFLAQKLFNISSNHLEDYNSMSVSWSQFNRENLPGWNYTFWQWFDGVMEVLKKHHKPHWNDGAILGFVNKQQAHDLLINKPDGTFLLRFSDSEIGGITIAWKFDSPDRNLWNLKPFTTRDFSIRSLADRLGDLNYLIYVFPDRPKDEVFAKYYTPVLAKAVDGYVKPQIKQVVPEFVNASTDAGASATYMDQAPSPVVCPQPHYNMYPPNPDPVLDQDGEFDLDESMDVARHVEELLRRPMDSLDARLSPPAGLFTSARSSLS
chain 2: MVTMEELREMDCSVLKRLMNRDENGGGGSAGGNGSGSHGALGLLSGGKCLLLDCRPFLAHSAGYIRGSVNVRCNTIVRRRAKGSVSLEQILPAEEEVRARLRSGLYSAVIVYDERSPRAESLREDSTVSLVVQALRRNAERTDICLLKGGYERFSSEYPEFCSKTKALAAIPPPVPPSTNESLDLGCSSCGTPLHDQGGPVEILPFLYLGSAYHAARRDMLDALGITALLNVSSDCPNHFEGHYQYKCIPVEDNHKADISSWFMEAIEYIDAVKDCRGRVLVHSQAGISRSATICLAYLMMKKRVRLEEAFEFVKQRRSIISPNFSFMGQLLQFESQVLTTSCAAEAASPSGPLRERGKATPTPTSQFVFSFPVSVGVHAAPSNLPYLHSPITTSPSC

Variants of: B1
Test: co-IP (anti-Flag IP, IB DUSP4) with band intensity quantification
Conditions: HEK-293T cells co-transfected for 24 hr, parent: 3.76e+04

Row | response (band intensity (arbitrary units)) | Variant
1 | 48300 | chain 1 Y694D
2 | 43700 | chain 1 Y694F
3 | 44800 | chain 1 Y694E
